Measured values from paper doi:10.1101/2020.11.27.401935.

Columns and labels:
[1] = molecular target: S. cerevisiae cytochrome c oxidase (complex IV), CIV (S. cerevisiae (endogenous in strain BY 4741)) (UniProt P00427)
[2] = molecular target: S. cerevisiae cytochrome c oxidase (complex IV), CIV (S. cerevisiae (endogenous in strain BY 4741)) (UniProt P00427); assay: cryo-EM structure
[3] = molecular target: S. cerevisiae CIII2CIV1/2 respiratory supercomplex (S. cerevisiae (endogenous in strain BY 4741)) (UniProt P07143); assay: cryo-EM structure
UniProt P07143, sequence (P07143 whole entry, looked up, one chain of several): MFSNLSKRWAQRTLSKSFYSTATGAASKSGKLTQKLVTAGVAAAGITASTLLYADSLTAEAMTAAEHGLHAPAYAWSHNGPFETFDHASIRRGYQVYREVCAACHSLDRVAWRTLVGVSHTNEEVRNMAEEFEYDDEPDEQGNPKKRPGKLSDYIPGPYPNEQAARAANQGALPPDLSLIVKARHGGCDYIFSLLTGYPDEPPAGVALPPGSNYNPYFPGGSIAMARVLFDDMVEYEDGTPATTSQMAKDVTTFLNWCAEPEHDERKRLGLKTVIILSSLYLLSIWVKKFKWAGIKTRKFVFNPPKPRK

UniProt P00427, sequence (P00427 whole entry, looked up, one chain of several): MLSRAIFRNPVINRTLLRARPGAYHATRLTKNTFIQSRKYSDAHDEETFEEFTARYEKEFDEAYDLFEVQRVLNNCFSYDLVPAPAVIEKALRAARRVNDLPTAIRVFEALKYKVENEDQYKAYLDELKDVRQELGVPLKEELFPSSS

cyt. c:O2 oxidoreductase activity of isolated CIV at a cyt. c:CIV ratio of one [1]: 3 e^-/s | cyt. c occupancy from integrated density (map with cyt. c at CIV) [2]: 1 | percent of particle images with cyt. c bound at CIV [2]: 33% | stoichiometry N [3]: 1
Substance: S. cerevisiae cytochrome c (isoform-1 cyt. c) (from UniProt P00044 1-109) (natural protein)
